Values quoted from earlier work, collected in paper PMC3042137.
pKd: −log10 of the molar value.

Target: JIP1 (L-pepJIP1) (Homo sapiens) (UniProt Q9UQF2)
Assay: ITC

Sequence of UniProt Q9UQF2 (Q9UQF2 whole entry): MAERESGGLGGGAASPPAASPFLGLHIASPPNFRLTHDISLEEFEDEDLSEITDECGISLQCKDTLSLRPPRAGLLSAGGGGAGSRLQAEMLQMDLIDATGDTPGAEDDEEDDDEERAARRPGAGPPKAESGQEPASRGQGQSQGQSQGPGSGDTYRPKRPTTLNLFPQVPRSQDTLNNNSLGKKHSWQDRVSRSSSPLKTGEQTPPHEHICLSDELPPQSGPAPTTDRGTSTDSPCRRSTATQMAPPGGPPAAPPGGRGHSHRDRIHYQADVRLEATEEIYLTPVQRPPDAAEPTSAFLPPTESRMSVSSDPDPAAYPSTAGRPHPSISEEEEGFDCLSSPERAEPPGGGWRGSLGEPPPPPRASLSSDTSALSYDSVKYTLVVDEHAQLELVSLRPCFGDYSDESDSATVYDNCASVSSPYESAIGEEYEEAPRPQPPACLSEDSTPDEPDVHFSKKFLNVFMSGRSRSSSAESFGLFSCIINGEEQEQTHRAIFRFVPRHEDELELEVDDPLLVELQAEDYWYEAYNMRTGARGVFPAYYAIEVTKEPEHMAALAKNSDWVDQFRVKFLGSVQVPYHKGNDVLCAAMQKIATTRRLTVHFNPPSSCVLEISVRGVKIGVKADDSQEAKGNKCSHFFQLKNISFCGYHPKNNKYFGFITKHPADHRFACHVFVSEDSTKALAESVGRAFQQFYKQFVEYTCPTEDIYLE

- pKd: 6.38
Substance: JNK1 (from UniProt P45983)
